Data reported in patent publication US20160033490A1.

Target: HRV-3C protease biosensor: blocked hybrid scFv of H6-MG (VH) and HL1-TO1 (VL) with the HRV-3C recognition sequence […]in the peptide linker
Assay: cell-based or functional assay

Substance Human Rhinovirus 3C protease (enzyme) has a kinetic assay of MG fluorescence activation, time to complete activation (1 unit protease, 25° C.) of 30 min.
